By EC50 is commonly meant the midpoint of the concentration-response curve.

First the molecules themselves.
B1: H1H7194P (antibody, human IgG1, V domains shown)
VH: EVQLVESGGGLVQPGRSLRLSCAASGFTFGDYTMHWVRQAPGKGLEWVSDISWNSGSKDYADSVKGRFTISRDNAKNSLYLQMNSLRTEDTAFYYCAKDSRGYGLYYHLGLDVWGQGTTVTVSS
VL: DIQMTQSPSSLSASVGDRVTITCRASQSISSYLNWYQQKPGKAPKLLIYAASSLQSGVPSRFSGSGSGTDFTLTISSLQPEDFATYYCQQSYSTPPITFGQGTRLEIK
notes: Monovalent 1-arm format: second Fab removed, only the Fc portion (CH2-CH3) expressed; human IgG1 Fc; tied by the numerical identifier; also called H1H7194B
B2: H1H7195P (antibody, human IgG1, V domains shown)
VH: B1 VH with G30A, K58I, D59A, L105H, Y107K, H108Y
VL: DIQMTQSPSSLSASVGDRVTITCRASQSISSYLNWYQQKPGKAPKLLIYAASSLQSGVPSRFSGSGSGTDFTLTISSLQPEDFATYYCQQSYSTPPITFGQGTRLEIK
notes: Monovalent 1-arm format: second Fab removed, only the Fc portion (CH2-CH3) expressed; human IgG1 Fc; tied by the numerical identifier; also called H1H7195B
B3: H1H7204P (antibody, human IgG1, V domains shown)
VH: EVQLVESRGALVQPGRSLRLSCAASGFAFNDYTMHWVRQAPGKGLEWVSDISWNSNSKDYADSVKGRFTISRDNAKNSLYLQMNSLRAEDTALYYCVKDGSGYGKFSLYALDVWGQGTTVTVSS
VL: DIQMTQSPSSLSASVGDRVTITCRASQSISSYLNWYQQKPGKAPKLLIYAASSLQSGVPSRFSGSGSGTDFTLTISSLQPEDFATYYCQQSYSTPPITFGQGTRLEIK
notes: Monovalent 1-arm format: second Fab removed, only the Fc portion (CH2-CH3) expressed; human IgG1 Fc; tied by the numerical identifier; also called H1H7204B
B4: H1H7196P (antibody, human IgG1, V domains shown)
VH: EVQLVESGGGMVQPGRSLRLSCAASGFPFNDYTMHWVRQVPGRGLEWVSDISWNSGSKGYADSVKGRFIISRDNAKNSLYLQMNSLRVEDTALYYCVKDGSGYGRFHYYAMDVWGQGTTVTVSS
VL: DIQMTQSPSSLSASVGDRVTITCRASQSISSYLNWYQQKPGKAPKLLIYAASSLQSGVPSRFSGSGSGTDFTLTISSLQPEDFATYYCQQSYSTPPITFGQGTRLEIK
notes: Monovalent 1-arm format: second Fab removed, only the Fc portion (CH2-CH3) expressed; human IgG1 Fc; tied by the numerical identifier; also called H1H7196B
B5: H1H7242P (antibody, human IgG1, V domains shown)
VH: EVQLVESGGGLVQPGRSLRLSCAASGFTFDDYTMHWVRQGPGKGLEWVSDIGWNSNSIGYADSVKGRFTISRDNAKNSLYLQMNSLRPEDTALYFCVKDKSGYGKFFIGLDVWGQGTMVTVSS
VL: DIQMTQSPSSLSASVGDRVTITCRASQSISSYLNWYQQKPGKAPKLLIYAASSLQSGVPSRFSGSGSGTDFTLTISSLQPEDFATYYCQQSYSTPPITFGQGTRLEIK
notes: Monovalent 1-arm format: second Fab removed, only the Fc portion (CH2-CH3) expressed; human IgG1 Fc; tied by the numerical identifier; also called H1H7242B
B6: H1H7241P (antibody, human IgG1, V domains shown)
VH: B5 VH with D30A, S57T, T69A, F95Y, F107Q, I108Y, M118T
VL: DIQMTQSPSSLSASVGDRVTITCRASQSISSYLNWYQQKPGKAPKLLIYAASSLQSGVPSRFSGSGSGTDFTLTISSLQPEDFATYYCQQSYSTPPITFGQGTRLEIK
notes: Monovalent 1-arm format: second Fab removed, only the Fc portion (CH2-CH3) expressed; human IgG1 Fc; tied by the numerical identifier; also called H1H7241B
B7: H1H7251P (antibody, human IgG1, V domains shown)
VH: EVQLVESGGGLVQPGRSLRLSCAASGFTFADYTMHWVRQGPGTGLEWVSDIGWSGGSLGYADSVKGRFTISRDNAKNSLYLEMNNLRPEDTALYYCVKDKSGYGKFQYGLDVWGQGTTVTVSS
VL: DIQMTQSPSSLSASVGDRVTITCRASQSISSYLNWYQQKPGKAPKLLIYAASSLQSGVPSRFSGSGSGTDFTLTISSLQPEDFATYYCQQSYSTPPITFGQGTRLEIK
notes: Monovalent 1-arm format: second Fab removed, only the Fc portion (CH2-CH3) expressed; human IgG1 Fc; tied by the numerical identifier; also called H1H7251B
B8: H1H7254P (antibody, human IgG1, V domains shown)
VH: B5 VH with L11V, T28K, D31G, S57T
VL: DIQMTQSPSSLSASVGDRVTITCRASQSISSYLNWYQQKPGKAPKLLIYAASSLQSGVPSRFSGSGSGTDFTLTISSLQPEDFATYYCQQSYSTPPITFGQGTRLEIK
notes: Monovalent 1-arm format: second Fab removed, only the Fc portion (CH2-CH3) expressed; human IgG1 Fc; tied by the numerical identifier; also called H1H7254B
B9: H1H7258P (antibody, human IgG1, V domains shown)
VH: B5 VH with E1Q, S57T, K76R, F95Y, F107Q, I108Y, M118T
VL: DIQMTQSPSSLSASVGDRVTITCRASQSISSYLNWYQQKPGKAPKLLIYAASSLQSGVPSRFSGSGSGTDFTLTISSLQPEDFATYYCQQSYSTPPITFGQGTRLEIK
notes: Monovalent 1-arm format: second Fab removed, only the Fc portion (CH2-CH3) expressed; human IgG1 Fc; tied by the numerical identifier; also called H1H7258B
B10: H1H7250P (antibody, human IgG1, V domains shown)
VH: B5 VH with E1Q, S57T, I58K
VL: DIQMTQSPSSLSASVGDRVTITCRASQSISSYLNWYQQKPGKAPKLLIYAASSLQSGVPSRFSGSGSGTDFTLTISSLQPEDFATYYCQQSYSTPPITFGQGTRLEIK
notes: Monovalent 1-arm format: second Fab removed, only the Fc portion (CH2-CH3) expressed; human IgG1 Fc; tied by the numerical identifier; also called H1H7250B
B11: H1H7208P (antibody, human IgG1, V domains shown)
VH: QVQLVESGGGLVHPGRSLRLSCAASGFKFDDYTMHWVRQAPGKGLEWVSDISWNSGSKGYADSVKGRFTISRDNAKDSLYLQMDSLRAADTAFYYCAKDKSGYGHFYYYAMDVWGQGTTVTVSS
VL: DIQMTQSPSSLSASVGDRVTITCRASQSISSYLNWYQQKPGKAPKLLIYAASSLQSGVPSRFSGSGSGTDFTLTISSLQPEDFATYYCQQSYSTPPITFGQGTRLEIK
notes: Monovalent 1-arm format: second Fab removed, only the Fc portion (CH2-CH3) expressed; human IgG1 Fc; tied by the numerical identifier; also called H1H7208B
B12: H1H7221P (antibody, human IgG1, V domains shown)
VH: EVQLVESGGGLVQPGRSLRLSCVASGFTFDDYSMHWVRQAPGKGLEWVSGISWNSGSKDYADSVKGRFTISRDNAKNSLYLQMNSLRAEDTALYYCAKYGSGYGKFYHYGLDVWGQGTTVTVSS
VL: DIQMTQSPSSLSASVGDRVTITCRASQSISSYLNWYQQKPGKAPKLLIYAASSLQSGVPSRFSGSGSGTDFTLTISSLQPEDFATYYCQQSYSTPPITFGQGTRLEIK
notes: Monovalent 1-arm format: second Fab removed, only the Fc portion (CH2-CH3) expressed; human IgG1 Fc; tied by the numerical identifier; also called H1H7221B

Changes are numbered by the printed parent chain.

The first test deals with T1, human CD3 expressed on cells (Jurkat cells; human T-cells of PBMC) (human, UniProt P09693 23-182; P20963 22-164). In words: cell-based or functional assay.
T1 sequence (chain, as listed by the source, chain 1 of 4): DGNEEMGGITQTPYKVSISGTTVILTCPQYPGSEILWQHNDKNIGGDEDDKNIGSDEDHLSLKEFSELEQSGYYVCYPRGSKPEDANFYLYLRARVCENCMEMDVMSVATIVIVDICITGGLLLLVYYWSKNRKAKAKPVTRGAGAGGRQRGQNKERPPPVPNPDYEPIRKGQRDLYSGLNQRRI
T1 sequence (chain, as listed by the source, chain 2 of 4): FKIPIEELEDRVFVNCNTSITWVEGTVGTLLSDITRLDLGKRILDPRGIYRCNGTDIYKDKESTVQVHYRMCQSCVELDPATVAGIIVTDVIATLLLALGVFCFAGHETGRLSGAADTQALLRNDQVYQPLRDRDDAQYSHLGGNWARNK
T1 sequence (P09693 23-182, chain 3 of 4): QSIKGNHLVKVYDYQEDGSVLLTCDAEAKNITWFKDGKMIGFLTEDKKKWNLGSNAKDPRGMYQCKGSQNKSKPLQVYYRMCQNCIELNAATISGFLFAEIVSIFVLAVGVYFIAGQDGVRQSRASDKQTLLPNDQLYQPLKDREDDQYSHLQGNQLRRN
T1 sequence (P20963 22-164, chain 4 of 4): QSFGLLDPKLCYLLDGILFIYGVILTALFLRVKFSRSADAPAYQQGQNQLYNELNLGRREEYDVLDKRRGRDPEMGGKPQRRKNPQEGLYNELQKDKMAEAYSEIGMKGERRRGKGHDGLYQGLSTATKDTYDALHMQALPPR
Turning to B1, the “U937 Cytotoxicity Human T-cells” value amounted to 4.71 pM.

With B2, the “U937 Cytotoxicity Human T-cells” value amounted to 6.1 pM.

Consider B3, for which the “U937 Cytotoxicity Human T-cells” value was 10.8 pM.

As for B4, the “U937 Cytotoxicity Human T-cells” value stood at 19.6 pM.

On to B5, for which the “U937 Cytotoxicity Human T-cells” value amounted to 7.5 pM.

Turning to B6, the “U937 Cytotoxicity Human T-cells” value is 12.3 pM.

Regarding B7, the “U937 Cytotoxicity Human T-cells” value amounted to 1.81 pM.

Consider B8, for which the “U937 Cytotoxicity Human T-cells” value was determined as 4.18 pM.

In the case of B9, the “U937 Cytotoxicity Human T-cells” value stood at 15.3 pM.

For B10, the “U937 Cytotoxicity Human T-cells” value came to 5.91 pM.

With B11, the “U937 Cytotoxicity Human T-cells” value came out at 45.9 pM.

As to B12, the “U937 Cytotoxicity Human T-cells” value amounted to 9.21 pM.

The next test addresses T1, human CD3 expressed on cells (Jurkat …). In words: cell-based or functional assay. This is another data set of the same source.
For the molecule B1, the “EC50 [M] hPBMC Proliferation” value worked out at 2.37e-12 M.

As to B2, the “EC50 [M] hPBMC Proliferation” value came to 2.42e-12 M.

As for B3, the “EC50 [M] hPBMC Proliferation” value was 1.51e-12 M.

In the case of B4, the “EC50 [M] hPBMC Proliferation” value worked out at 1.27e-12 M.

As for B5, the “EC50 [M] hPBMC Proliferation” value stood at 2.13e-12 M.

Consider B6, for which the “EC50 [M] hPBMC Proliferation” value is 1.05e-12 M.

Consider B7, for which the “EC50 [M] hPBMC Proliferation” value was 1.3e-12 M.

B8: the “EC50 [M] hPBMC Proliferation” value was determined as 2.8e-12 M.

For B9, the “EC50 [M] hPBMC Proliferation” value turned out to be 2.17e-12 M.

Turning to B10, the “EC50 [M] hPBMC Proliferation” value was 2.43e-12 M.

With B11, the “EC50 [M] hPBMC Proliferation” value stood at 1.46e-12 M.

For B12, the “EC50 [M] hPBMC Proliferation” value turned out to be 2.6e-12 M.

The target is the same in a further test. In words: FACS titration on Jurkat cells, monovalent 1-arm antibody. Here is the method:
FACS data was acquired using the following protocol: Cells at 2×10⁵ per well were incubated with serially diluted antibodies for 30 min on ice. Post incubation, cells were washed and secondary antibody was added and incubated for an additional 30 minutes. After incubation, cells were washed, re-suspended in cold PBS containing 1% BSA and analyzed by flow cytometry with viable Jurkat cells gated by side and forward scatters. The EC₅₀s for cell binding titration were determined using Prism software with values calculated using a 4-parameter non-linear regression analysis.
B1 displayed an EC50 of 1.5 nM.

Molecule B2 had an EC50 of 0.342 nM.

In the case of B3, the EC50 was determined as 2.29 nM.

B4 displayed an EC50 of 34.4 nM.

For B5, it took 1.83 nM to reach a half-maximal effect (EC50).

In the case of B6, the EC50 was determined as 1.01 nM.

The molecule B7 displayed an EC50 of 1.45 nM.

B8 displayed an EC50 of 1.09 nM.

B9 had an EC50 of 1.07 nM.

B10: the EC50 amounted to 1.37 nM.

The molecule B11 displayed an EC50 of 51.9 nM.

In the case of B12, the response was half-maximal at 1.4 nM (EC50).

The target of a further test is cynomolgus monkey CD3 expressed on monkey T-cells (PBMCs) (cynomolgus monkey, UniProt Q95LI5 22-198; Q95LI8 22-171). In words: cell-based or functional assay.
Sequence of cynomolgus monkey CD3 expressed on monkey T-cells (PBMCs) (Q95LI5 22-198, chain 1 of 2): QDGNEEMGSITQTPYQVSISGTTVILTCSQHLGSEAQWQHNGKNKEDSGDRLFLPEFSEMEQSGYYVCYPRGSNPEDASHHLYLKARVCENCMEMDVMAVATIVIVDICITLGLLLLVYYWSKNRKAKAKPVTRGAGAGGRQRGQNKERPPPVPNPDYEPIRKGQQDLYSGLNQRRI
Sequence of cynomolgus monkey CD3 expressed on monkey T-cells (PBMCs) (Q95LI8 22-171, chain 2 of 2): as the sequence (chain, as listed by the source, chain 2 of 4) above, with I5V, N15K, I20V, S32T, D33N, I34N, T64A, S74N, V83L, H141R counted along it
As for B1, the “EC50 [M] mfPBMC Proliferation” value is 4.84e-12 M.

B2: the “EC50 [M] mfPBMC Proliferation” value is 1.36e-12 M.

Consider B3, for which the “EC50 [M] mfPBMC Proliferation” value was 1.26e-11 M.

Consider B4, for which the “EC50 [M] mfPBMC Proliferation” value was 1.4e-08 M.

Turning to B5, the “EC50 [M] mfPBMC Proliferation” value is 1.38e-11 M.

As to B6, the “EC50 [M] mfPBMC Proliferation” value stood at 2.05e-11 M.

For the molecule B7, the “EC50 [M] mfPBMC Proliferation” value came to 1.83e-11 M.

With B8, the “EC50 [M] mfPBMC Proliferation” value turned out to be 8.88e-11 M.

Consider B9, for which the “EC50 [M] mfPBMC Proliferation” value was 1.11e-11 M.

With B10, the “EC50 [M] mfPBMC Proliferation” value came out at 7.27e-11 M.

On to B11, for which the “EC50 [M] mfPBMC Proliferation” value turned out to be 7.02e-12 M.

Regarding B12, the “EC50 [M] mfPBMC Proliferation” value is 1.72e-12 M.

Values taken from US20190127480A1 (Regeneron, published 2019).
